The values that follow come from patent CN111138531A (INST MILITARY MEDICINE ACADEMY MILITARY SCIENCES PLA, dated 2020).

In assay [1] the target is T1, RESTV GP (RESTV, UniProt Q66799 34-651).
T1 sequence: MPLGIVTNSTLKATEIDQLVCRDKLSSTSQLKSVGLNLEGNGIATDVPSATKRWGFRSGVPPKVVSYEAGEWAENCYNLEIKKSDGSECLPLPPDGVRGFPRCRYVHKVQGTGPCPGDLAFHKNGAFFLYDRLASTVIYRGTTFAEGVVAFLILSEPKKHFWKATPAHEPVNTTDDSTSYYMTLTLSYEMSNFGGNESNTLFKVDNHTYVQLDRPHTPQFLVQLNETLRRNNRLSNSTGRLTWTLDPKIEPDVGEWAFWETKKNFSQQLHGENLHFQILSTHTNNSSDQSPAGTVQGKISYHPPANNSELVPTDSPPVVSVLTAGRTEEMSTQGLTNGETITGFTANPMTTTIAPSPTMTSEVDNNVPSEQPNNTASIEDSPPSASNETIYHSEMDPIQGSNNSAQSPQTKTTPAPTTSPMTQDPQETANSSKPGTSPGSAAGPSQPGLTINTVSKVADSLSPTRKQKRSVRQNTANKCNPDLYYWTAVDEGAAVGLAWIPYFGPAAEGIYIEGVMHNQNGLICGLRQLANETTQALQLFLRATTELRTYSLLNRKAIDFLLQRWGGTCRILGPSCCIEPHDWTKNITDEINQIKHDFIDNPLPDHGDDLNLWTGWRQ
The experiment in a line: ELISA, coated GP 1 μg/mL, 1:3 dilution series of 8F9. On the technique in general: In an ELISA, binding on a coated surface is turned into a signal by an enzyme label.

For assay [2], the target named is T2, SUDV GP (SUDV, UniProt Q7T9D9 33-650).
T2 sequence: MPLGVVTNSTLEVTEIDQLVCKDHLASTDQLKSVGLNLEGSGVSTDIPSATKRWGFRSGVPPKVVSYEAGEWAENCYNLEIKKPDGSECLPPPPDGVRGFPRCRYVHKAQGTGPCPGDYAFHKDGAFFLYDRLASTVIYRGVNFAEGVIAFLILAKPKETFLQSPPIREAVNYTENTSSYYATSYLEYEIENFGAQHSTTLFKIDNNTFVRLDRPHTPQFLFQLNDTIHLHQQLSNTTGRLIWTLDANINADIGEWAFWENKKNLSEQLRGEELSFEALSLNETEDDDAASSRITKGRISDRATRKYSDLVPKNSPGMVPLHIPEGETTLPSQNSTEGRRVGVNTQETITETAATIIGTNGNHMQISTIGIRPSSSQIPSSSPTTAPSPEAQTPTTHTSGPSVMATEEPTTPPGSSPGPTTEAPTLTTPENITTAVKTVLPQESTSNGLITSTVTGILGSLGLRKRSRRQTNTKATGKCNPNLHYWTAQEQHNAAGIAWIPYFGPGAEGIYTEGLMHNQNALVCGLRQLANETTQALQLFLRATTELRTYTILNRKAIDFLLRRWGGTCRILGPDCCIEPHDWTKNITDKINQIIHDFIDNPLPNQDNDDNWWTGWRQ
The description is as above.

In assay [3] the target is GP1 (EBOV, UniProt Q05320 33-501). The experiment in a line: ELISA on coated truncated GP, method as example 2.
In assay [4] the target is sGP (EBOV, UniProt Q05320 33-295). Nature of the assay: ELISA on coated truncated GP, method as example 2.
Assay [5] deals with T3, EBOV GP (EBOV, UniProt Q05320 33-650).
T3 sequence: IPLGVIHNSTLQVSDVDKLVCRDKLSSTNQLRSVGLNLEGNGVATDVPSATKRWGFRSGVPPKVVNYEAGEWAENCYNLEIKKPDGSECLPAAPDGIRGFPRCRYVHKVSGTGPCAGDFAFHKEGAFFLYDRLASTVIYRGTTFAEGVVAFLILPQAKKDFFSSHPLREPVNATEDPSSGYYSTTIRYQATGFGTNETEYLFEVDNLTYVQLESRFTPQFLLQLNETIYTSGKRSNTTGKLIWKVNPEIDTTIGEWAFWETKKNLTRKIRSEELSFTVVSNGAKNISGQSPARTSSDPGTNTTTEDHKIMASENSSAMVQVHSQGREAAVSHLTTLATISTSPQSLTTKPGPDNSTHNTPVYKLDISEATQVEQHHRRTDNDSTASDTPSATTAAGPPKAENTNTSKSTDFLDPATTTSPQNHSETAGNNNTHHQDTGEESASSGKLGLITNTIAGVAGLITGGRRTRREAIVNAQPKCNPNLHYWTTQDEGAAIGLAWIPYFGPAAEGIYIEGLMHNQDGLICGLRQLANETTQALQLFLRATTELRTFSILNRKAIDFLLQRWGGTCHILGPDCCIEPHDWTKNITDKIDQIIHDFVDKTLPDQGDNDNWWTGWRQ
The experiment in a line: ELISA, coated GP 1 μg/mL, 1:3 dilution series of 8F9 from 10 μg/mL.

B1: 单克隆抗体8F9 (antibody, V domains shown)
VH: EVQLLESGGGLVQPGGSLRLSCAASEFTFSNYAMNWVRQAPGKGLEWVSGISTRGSSTYYADSVKGRFTISRDNSKNTLYLQMNSLRVEDTAVYYCAKDRLSVFGVVLISSDYYGMDVWGQGTTVTVSS
VL: AIRMTQSPFSLSASVGDRVTITCRASRTISSYLNWYQKKPGKAPKLLIYAASSLQSGVPSRFSGSGSGTDFTLTISSLQPEDFATYYCQQSYSTPMTFGQGTRLEIKT
In the case of B1, the binding result in assay [1] and in assay [2] was “no binding (tested: 10μg/mL (highest concentration tested))” each time. Also, the EC50 (in general, the concentration that produces a half-maximal response) turned out to be 9.5 ng/mL in assay [3], 8.8 ng/mL in assay [4] and 15 ng/mL in assay [5].
